In publication PMC10243133 (Proceedings of the National Academy of Sciences of the …, 2023):

Legend:
mutant GLP-1R = conditions: cited from earlier work
[1] = molecular target: GLP-1R endogenously expressed in the rat pancreatic INS-1E β-cell line (rat (endogenous in INS-1E)) (UniProt P32301)
Chain of GLP-1R endogenously expressed in the rat pancreatic INS-1E β-cell line (rat (endogenous in INS-1E)) (P32301 22-463): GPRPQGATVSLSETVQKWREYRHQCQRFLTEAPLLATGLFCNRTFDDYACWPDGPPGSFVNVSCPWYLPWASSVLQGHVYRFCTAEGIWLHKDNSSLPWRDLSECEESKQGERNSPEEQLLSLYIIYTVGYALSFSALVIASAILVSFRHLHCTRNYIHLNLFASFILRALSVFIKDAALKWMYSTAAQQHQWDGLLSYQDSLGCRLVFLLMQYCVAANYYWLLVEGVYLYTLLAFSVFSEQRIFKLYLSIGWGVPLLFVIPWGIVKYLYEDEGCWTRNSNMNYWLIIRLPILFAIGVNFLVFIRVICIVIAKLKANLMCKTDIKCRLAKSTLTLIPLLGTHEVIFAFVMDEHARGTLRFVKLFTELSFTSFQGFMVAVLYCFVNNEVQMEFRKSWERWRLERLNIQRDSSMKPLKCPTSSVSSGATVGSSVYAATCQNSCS

Compound	allosteric activity in GLP-1R binding site mutants (mutant GLP-1R)	EC50 of peptide activity in rat INS-1E cells with 3 μM compound 3-20 (Emax 63%) [1] [µM]	EC50 of peptide activity in rat INS-1E cells with 3 μM compound 3-24 (Emax 60%) [1] [µM]
COc1ccc(Cl)c([C@@H](C)n2cnc3ccc(-c4ccccc4[C@H]4CCCCN4)cc32)c1Cl [LSN3160440]	only abolished in a triple mutant	–	–
GLP-1(9-36) (peptide)	–	0.115	0.1
